Tests used:
RPMI-8226 cells = test: Macrophage ADCP; type: cell-based; conditions: RPMI-8226, human macrophages
Procedure: (§1) Cultured macrophages were detached and plated in flat 96-well plates at 50 000 cells/well and placed in 37° C. CFSE-stained target cells were incubated with antibodies for up to 1 hr on ice. After washing, the different cell solutions were added to the culture plates containing macrophages at a ratio of 5:1 (Target cells:Macrophages). Thereafter, the culture plates were incubated at 37° C. for 1-2 hr (primary patient MM cells) or 16 hr (RPMI-8226 cells). The percentage of macrophages that had phagocytosed tumor cells (CFSE^+, CD206^+) per total analyzed macrophages was determined following gating and acquisition of 5000 CD206^+ cells/sample.
(§2) Buffy coats from healthy human donors were ordered through the local blood central at Lund University Hospital and Halmstad Hospital. Peripheral blood mononuclear cells (PBMCs) were first extracted using Ficoll-Paque PLUS (GE Healthcare Life Sciences), followed by isolation of monocytes with CD14 MicroBeads and MACS separation (Miltenyi Biotec). The monocytes were cultured in RPMI 1640 medium with 10% heat-inactivated FBS (Invitrogen) and 25 ng/mL of recombinant human M-CSF (R&D Systems) for 6-14 days, causing differentiation into macrophages. Medium with M-CSF was changed every 2-3 days upon initiation of cultures.
(§3) RPMI-8226 cells (ATCC) were continuously cultured in RPMI 1640 medium supplemented with 10 mM HEPES, 1 mM sodium pyruvate and 10% FBS. For multiple myeloma cells, freshly isolated bone marrow samples were donated by patients at Lund University Hospital and subsequently processed with Ficoll-Paque PLUS. Negative isolation of malignant plasma cells was then performed using the Plasma Cell Isolation Kit II according to the manufacturer's instructions (Miltenyi Biotec).
(§4) At least 4 h before co-culture with target cells the cultured macrophages were detached with Accutase (Sigma Aldrich), before plated in flat 96-well plates at 50 000 cells/well and placed in 37° C. […] After washing, the different cell solutions were added to the culture plates containing macrophages at a ratio of 5:1 (Target cells:Macrophages). Thereafter, the culture plates were incubated at 37° C. for 1-2 hr (primary patient MM cells) or 16 hr (RPMI-8226 cells). Next, samples were stained with APC-conjugated anti-CD206 antibody (BD Biosciences), before harvested by scraping the culture plate wells. The resulting cell solutions were then analyzed by flow cytometry, where CD206^+ macrophages were gated and acquired at 5000 cells/sample. A cut-off level identifying CFSE^+, CD206^+ double positive (phagocytic) macrophages was set for each experimental sample series. This level differed between the individual assays since the magnitude of basic (unstimulated) phagocytosis varied (different donors and time-points) among the experiments.

[1] = test system: primary patient's MM cells; test: Macrophage ADCP; type: cell-based; conditions: human macrophages
Procedure: as §1, §2, §3, §4

MCF-7 breast carcinoma = test: IgG binding to tumour cell line, flow cytometry; design: species or system human; conditions: MCF-7, compared to the prostate cancer cells
Text: (§5) FIG. 6—Binding of B1, B11, C11 IgG, to tumour cell lines of different origin. The antigen distribution of antigens targeted by the B1, B11, and C11 antibodies on different carcinoma cell lines was investigated by flow-cytometry.
(§6) The antigen distribution of human antibody targeted antigens, mainly for B11, on different carcinoma cell lines was investigated. Cells (MCF-7 and MDA MB 435S breast carcinoma, JAR and JEG-3 chorio-carcinoma, A549 lung carcinoma, TCC-SUP urinary bladder carcinoma, MDA MB 435 melanoma, HPAC, PANC-1 and BxPC-3 pancreatic carcinoma, PC-3 and DU145 prostate carcinoma, LS174 T, CaCo2, and Lovo colorectal carcinoma, and THP-1 monocytic leukaemia cells), were washed in PBS, and resuspended at 4×10^6 cells/ml in Complete Medium (200,000 cells/50 […] sample). […] Cells were incubated with either of the antibodies for 1 hour on ice, washed by resuspension in PBS/BSA 0.5%, centrifuged at 1200 rpm for 5 min, and complete aspiration of the supernatants was undertaken. Cells were incubated with PE-conjugated Goat F(ab′)2 anti-Human IgG (Caltag Laboratories, Cat no: H10104), diluted 1/50 in PBS/BSA 0.5%, for 30 min, on ice. Following resuspension of in 300 μl PBS/BSA 0.5%, cells were analysed for IgG binding using a FACScan instrument.

[2] = test system: HPAC pancreatic carcinoma; test: IgG binding to tumour cell line, flow cytometry; design: species or system human; conditions: compared to the prostate cancer cells
Text: as §5, §6

PBMC = PBMC cytokine release; type: cell-based, human; conditions: immobilized (air-dried or wet coated) or in solution
Procedure: (FIG. 23D) Antibody-induced PBMC cytokine release. PBMC cytokine release was measured by ELISA of cell culture supernatants for IL-1β, IL-2, IL-6, IL-8, IFN-γ and TNF-α following incubation of cells in plates coated with hyper cross-linked (air-dried “A” or wet coated “W”) BI-505, isotype control, or positive control Okt-3 antibody.
(FIG. 23E) Antibody-induced cytokine release in LPS-primed PBMC. PBMC were incubated with titrated LPS and concentrations yielding submaximal cellular release of IL-1β. (100 pg/ml), IL-6 (10 pg/ml), IL-8 (10 pg/ml), and TNF-α (10 pg/ml) were determined (arrows, left panel), and used in subsequent experiments assessing antibody (BI-505 or ctrl IgG) effects on cytokine release from LPS-primed PBMC (right panel). Treatment with 100 ng/ml LPS served as positive control for robust cytokine release.
Cytokine release and T cell proliferation are thought to be common causes of mild and severe adverse reactions to antibody therapy. In order to further investigate any undesirable effects of BI-505 on ICAM-1 expressing immune cells, we therefore assessed putative effects of BI-505 on peripheral blood mononuclear cell (PBMC) cytokine release and T cell proliferation. […]
For cell culture cytokine quantifications, cells were seeded in 96-well cell culture wet and air-dried coated plates at a density of 1×10^6 cells/mL and cultured with antibodies for 24 hr. […]

B1: B11: fully human IgG1 antibody specific for ICAM-1; VH and VL sequences of FIG. 10 (SEQ ID NOs. 6 and 8) (antibody, listed as Homo sapiens, V domains shown)
VH: EVQLLESGGGLVQPGGSLRLSCAASGFTFSNAWMSWVRQAPGKGLEWVAFIWYDGSNKYYADSVKGRFTISRDNSKNTLYLQMNSLRAEDTAVYYCARYSGWYFDYWGQGTLVTVSS
VL: QSVLTQPPSASGTPGQRVTISCTGSSSNIGAGYDVHWYQQLPGTAPKLLIYDNNNRPSGVPDRFSGSKSGTSASLAISGLRSEDEADYYCQSYDSSLSAWLFGGGTKLTVLG
ADCP (RPMI-8226 cells): conferred ADCP | ADCP [1]: conferred ADCP | binding / ICAM-1 expression (MCF-7 breast carcinoma): lower intensity | binding / ICAM-1 expression [2]: lower intensity | PBMC cytokine release (PBMC): did not, however, induce PBMC cytokine release

From patent publication US9803013B2, “Biological materials and uses thereof” (BioInvent International AB, priority 2005, dated 2017)
